Assay results taken from article PMC12846601.

Target: HexaPro, recombinant SARS-CoV-2 spike protein vaccine candidate (SARS-CoV-2) (UniProt P0DTC2)
Assay: SEC; […], PBS ([…], pH 6.5), 1.25 mL/min, […]

Question: With “HexaPro, recombinant SARS-CoV-2 spike protein vaccine candidate (from UniProt P0DTC2 14-1273) (natural protein)” as the substance, how does the stoichiometry N read?
Answer: The stoichiometry N was 3.
